The data set “SEC” deals with the molecule itself. As to the kind of experiment: SEC.
A further data set addresses T1, SeqAΔ(41-59)-A25R (Escherichia coli, UniProt P0AFY8 1-181, A25R;del41-59).
T1 sequence: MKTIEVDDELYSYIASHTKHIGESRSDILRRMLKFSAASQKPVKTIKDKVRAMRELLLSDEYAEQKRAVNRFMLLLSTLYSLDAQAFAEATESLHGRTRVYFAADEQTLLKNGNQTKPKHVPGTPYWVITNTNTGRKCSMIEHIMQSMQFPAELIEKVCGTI
As to the kind of experiment: EMSA.

B1: SeqAΔ(41–59)-A25R (natural protein, E. coli, UniProt P0AFY8 1-181, looked up)
chain: MKTIEVDDELYSYIASHTKHIGESRSDILRRMLKFSAASQKPVKTIKDKVRAMRELLLSDEYAEQKRAVNRFMLLLSTLYSLDAQAFAEATESLHGRTRVYFAADEQTLLKNGNQTKPKHVPGTPYWVITNTNTGRKCSMIEHIMQSMQFPAELIEKVCGTI
For the molecule B1, in the data set “SEC”, the “stoichiometry N” value is 2.

B2: hemimethylated tandem GATC duplex (crystallization oligonucleotide) (dsDNA)
DNA 1: GAGTCGATCGGCGGGATCCTTA
DNA 2: TCTAAGGATCCCGCCGATCGAC
modifications: N6-methyladenine at positions 7 and 16 of strand 1; strand 2 unmethylated
The molecule B2 came in with a Kd in the data set with SeqAΔ(41-59)-A25R of about 90 nM.

B3: SeqA-A25R (natural protein, E. coli, UniProt P0AFY8 1-181, looked up)
chain: MKTIEVDDELYSYIASHTKHIGESRSDILRRMLKFSAASQPAAPVTKEVRVASPAIVEAKPVKTIKDKVRAMRELLLSDEYAEQKRAVNRFMLLLSTLYSLDAQAFAEATESLHGRTRVYFAADEQTLLKNGNQTKPKHVPGTPYWVITNTNTGRKCSMIEHIMQSMQFPAELIEKVCGTI
Turning to B3, the binding result in the data set “SEC” is “binds”.
